The target of one assay is T1, human DLL3 on cells (human, UniProt Q9NYJ7 27-618).
T1 sequence (looked up): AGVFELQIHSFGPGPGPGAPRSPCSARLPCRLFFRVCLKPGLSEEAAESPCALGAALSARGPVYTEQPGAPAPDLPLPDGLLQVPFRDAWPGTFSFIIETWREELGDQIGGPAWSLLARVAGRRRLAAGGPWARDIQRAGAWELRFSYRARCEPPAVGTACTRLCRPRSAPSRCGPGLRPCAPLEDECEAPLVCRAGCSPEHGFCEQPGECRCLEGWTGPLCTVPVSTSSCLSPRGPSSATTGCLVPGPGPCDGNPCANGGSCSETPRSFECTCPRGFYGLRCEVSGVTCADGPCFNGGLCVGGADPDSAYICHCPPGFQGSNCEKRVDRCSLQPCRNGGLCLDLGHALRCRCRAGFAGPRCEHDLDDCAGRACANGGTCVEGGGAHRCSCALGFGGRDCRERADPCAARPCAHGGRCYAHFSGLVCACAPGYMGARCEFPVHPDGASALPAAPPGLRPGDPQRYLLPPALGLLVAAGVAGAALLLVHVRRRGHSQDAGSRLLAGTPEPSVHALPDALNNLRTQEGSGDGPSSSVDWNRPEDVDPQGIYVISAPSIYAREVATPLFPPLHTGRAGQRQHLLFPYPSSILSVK
Briefly: cell-based or functional assay.

Assay [1] has as its target T2, hDLL3 EGF1-6 (aa 216-492) fused to mIgG2a CH2-CH3 Fc (human).
T2 construct: also called DLL3 EGF1-6(mIgG2aCH2-CH3); hDLL3 EGF domain construct
T2 chain: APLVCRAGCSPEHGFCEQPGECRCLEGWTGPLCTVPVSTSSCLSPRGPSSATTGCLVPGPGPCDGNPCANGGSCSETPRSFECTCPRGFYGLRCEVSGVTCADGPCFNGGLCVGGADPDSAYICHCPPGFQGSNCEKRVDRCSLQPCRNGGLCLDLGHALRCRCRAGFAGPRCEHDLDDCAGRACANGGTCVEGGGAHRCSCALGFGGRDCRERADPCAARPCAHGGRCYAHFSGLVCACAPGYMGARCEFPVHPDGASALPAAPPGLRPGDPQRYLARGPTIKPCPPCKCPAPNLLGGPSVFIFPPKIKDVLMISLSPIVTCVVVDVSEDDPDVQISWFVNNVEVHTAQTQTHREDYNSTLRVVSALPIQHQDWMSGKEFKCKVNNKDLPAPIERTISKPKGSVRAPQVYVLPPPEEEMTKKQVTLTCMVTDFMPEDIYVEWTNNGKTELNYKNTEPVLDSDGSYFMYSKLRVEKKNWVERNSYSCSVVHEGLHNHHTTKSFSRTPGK
Description: ELISA on coated hDLL3 EGF1-6-mIgG2a Fc (2 ug/ml), anti-hIgG-Fc-HRP, A450. In general terms: In an ELISA, binding on a coated surface is turned into a signal by an enzyme label.
Description: Plates were washed 3 times with dH2O, and blocked with 100 ul 5% skim milk for 1 h, RT. Test VHHFcs and control antibodies were diluted in block in a 1:4 serial titration from 100 nM to 0.01 nM, and incubated for 1 h, RT. […] Plate was washed 3 times with H₂O, and wells incubated with 50 ul TMB substrate for 4-5 min at RT. The reaction was quenched with 50 ul/well 1N HCl. The plate was read on a Synergy Neo2 at absorbance 450 nm.

The record followed here is US20250051476A1 (ABDERA THERAPEUTICS, published 2025).

B1: Clone 107 VHH-Fc with H435Q Fc (Fc fusion)
chain: QVQLVESGGGLVQAGDSLRLSCVASDRTFSSYAVGWFRQAPGKEREFVAAISWNGGRTLYTDSVTGRFTISRDNAKSTVYLQMNGLKPEDTAVYYCAARPAAPTRRLEYDYWGQGTQVTVSSAPELLGGPSVFLFPPKPKDTLMISRTPEVTCVVVDVSHEDPEVKFNWYVDGVEVHNAKTKPREEQYNSTYRVVSVLTVLHQDWLNGKEYKCKVSNKALPAPIEKTISKAKGQPREPQVYTLPPSREEMTKNQVSLTCLVKGFYPSDIAVEWESNGQPENNYKTTPPVLDSDGSFFLYSKLTVDKSRWQQGNVFSCSVMHEALHNQYTQKSLSLSPG
Regarding B1, the “H435Q-Fc SHP-77 Internalization FOI” value with human DLL3 on cells amounted to 1.27 FOI.

B2: Clone 186 VHH-Fc with H435Q Fc (Fc fusion)
chain: QVQVVESGGGLVQPGGSLTLSCAASGFDFSTYTVNWYRQAPGKEREKVARISSTGTTTNYANSAKGRFTLSRDNAKNRVYLQMNNLKPEDTAVYFCNFERFDSNYWGQGTQVTVSSAPELLGGPSVFLFPPKPKDTLMISRTPEVTCVVVDVSHEDPEVKFNWYVDGVEVHNAKTKPREEQYNSTYRVVSVLTVLHQDWLNGKEYKCKVSNKALPAPIEKTISKAKGQPREPQVYTLPPSREEMTKNQVSLTCLVKGFYPSDIAVEWESNGQPENNYKTTPPVLDSDGSFFLYSKLTVDKSRWQQGNVFSCSVMHEALHNQYTQKSLSLSPG
With B2, the “H435Q-Fc SHP-77 Internalization FOI” value with human DLL3 on cells came to 1.18 FOI.

B3: 24 (Fc fusion)
VHH-Fc chain: QVQYVESGGGLVQPGGSLRLSCAASGFTFSSYRINWYRQPPGKGRELVGSITDTGSTNYADSVKGRFTISRDNAKNTVYLQMSSLKPEDTAVYYCRAPTIAAYWGQGTQVTVSS
notes: same clone as 1.m43, 2.m5, 3.m7, 3.m51, 4.m1; also called Clone 24
In the case of B3, in assay [1], the binding result is recorded as “binds”.

B4: Clone 100 VHH-Fc with H435Q Fc (Fc fusion)
chain: QVQLVESGGGSVQPGGSLRLSCAASGIVFNSDVMGWYRQVPGKPRELVATITGGGSTNYATSVKGRFTISRDNAKNTVYLQMNSLRPEDTAVYYCNGRRGDSMLAFWAQGTQVTVSSAPELLGGPSVFLFPPKPKDTLMISRTPEVTCVVVDVSHEDPEVKFNWYVDGVEVHNAKTKPREEQYNSTYRVVSVLTVLHQDWLNGKEYKCKVSNKALPAPIEKTISKAKGQPREPQVYTLPPSREEMTKNQVSLTCLVKGFYPSDIAVEWESNGQPENNYKTTPPVLDSDGSFFLYSKLTVDKSRWQQGNVFSCSVMHEALHNQYTQKSLSLSPG
Consider B4, for which, in the assay with human DLL3 on cells, the “H435Q-Fc SHP-77 Internalization FOI” value amounted to 1.19 FOI.

B5: 100 (Fc fusion)
VHH-Fc chain: QVQLVESGGGSVQPGGSLRLSCAASGIVFNSDVMGWYRQVPGKPRELVATITGGGSTNYATSVKGRFTISRDNAKNTVYLQMNSLRPEDTAVYYCNGRRGDSMLAFWAQGTQVTVSS
notes: same clone as 1.m44, 2.m24, 3.m26, 3.m53, 4.m7; also called Clone 100
B5: in assay [1], the binding result is “binds”.

B6: 107 (Fc fusion)
VHH-Fc chain: QVQLVESGGGLVQAGDSLRLSCVASDRTFSSYAVGWFRQAPGKEREFVAAISWNGGRTLYTDSVTGRFTISRDNAKSTVYLQMNGLKPEDTAVYYCAARPAAPTRRLEYDYWGQGTQVTVSS
notes: same clone as 1.m45, 2.m28, 3.m30, 3.m55, 4.m13
For B6, the binding result in assay [1] is on record as “binds”.
